This passage reports FRET efficiency results from article doi:10.1101/838888.

For the assay, the target named is superfolder GFP with strained-cyclooctyne pyrrolysine at residue 204 (sfGFP^204SCO) (Aequorea victoria) [GFP: P42212]. Put plainly: FRET or BRET. (In BRET a luciferase serves as donor, and the signal depends on an acceptor being close.)

Substance “Venus with p-azido-L-phenylalanine at residue 204 (Venus^204azF) (from UniProt P42212 2-238)” returned an FRET efficiency of 86.8%.
